Laboratory results as given in patent US7238668B1, “Inhibition of lymphocyte adherence with CS-1-peptides and fragments thereof” (Fred Hutchinson Cancer Research Center, priority 1989, dated 2007).
Ends that are not written are not given here.

Columns and labels:
[1] = system: Jurkat (T) lymphocyte adhesion to HUVE monolayers; assay: Endothelial cell adhesion assay, Jurkat cells on HUVE monolayers; format: cell-based, human; details: Table XI
Experimental: (§1) HUVEs were incubated with IL-1 β (1 ng/ml) or in some experiments with TNF α (10 ng/ml) for 6–24 hours. At the end of this incubation the HUVE monolayers were washed and used in the adhesion assay.
(§2) Human umbilical vein endothelial cells (HUVEs) were cultured in 48 well plates as described (supra). To measure adherence of lymphocytes to HUVE monolayer cultures, lymphocytes were labeled with Na2 ^51CrO4 (50 μCi/ml) for 2–4 hours), washed, and then 10^5 lymphocytes were incubated with HUVE monolayers in the presence or absence of inhibitory antibodies or CS-1 derived peptides. The lymphocytes were allowed to adhere for 30 minutes at 37°. Non-adherent cells were subsequently removed by washing with PBS, and the adherent cells were dissolved in SDS/NaOH. Bound ^51Cr-cpm were quantitated in a gamma counter. In some experiments, endothelial cells were activated prior to the adhesion assay by incubating with IL-1 β (1 ng/ml) or […] (10 ng/ml) for 6–24 hours in defined CS-100 media (Cell Systems, Seattle, Wash.).

[2] = system: T lymphocytes (Jurkat or Molt 4 cells); assay: T lymphocyte adhesion to plasma fibronectin, tryptic fragments and CS peptides; format: cell-based, human
Experimental: (§3) Antibodies that would alter cell adhesion to purified plasma fibronectin, tryptic fragments and CS peptides were identified as previously described (Wayner and Carter, 1987). […] The plates were blocked with PBS supplemented with 10 mg/ml heat denatured BSA (HBSA). T lymphocyte or HT1080 cells were labeled with Na2 ^51CrO4 (50 μlCi/ml for 2–4 hr), washed, and 5×10^4 HT1080 or cultured T cells or […] were incubated with hybridoma culture supernatants (1:2 dilution in PBS supplemented with 1 mg/ml heat denatured BSA) or control myeloma cell culture supernatant for 15 minutes at room temperature. The cells were allowed to adhere to the protein-coated surfaces in the presence of the hybridoma supernatants for 15–30 minutes (HT1080) or 2–4 hours (lymphocytes) at 37° C. Non-adherent cells were removed by washing with PBS, and the adherent cells were dissolved in SDS/NaOH and bound ^51Cr-cpm were quantitated in a gamma counter.
Human plasma fibronectin was a generous gift from Drs. Horowitz and R. Schulman (New York Blood Center, N.Y.). […] Two overlapping peptides spanning the initial 48 residues of the IIICS region of human fibronectin (CS-1 and CS-2) were synthesized and coupled to rabbit IgG as described (Humphries et al., 1986, and Humphries et al., 1987, J. Biol. Chem. 262:6886–6892).

K562-1 cells = assay: Inhibition of K562 cell adhesion to plasma fibronectin and fragments; format: cell-based, human
Jurkat = assay: Inhibition of Jurkat cell adhesion to plasma fibronectin and its fragments; format: cell-based, human
Experimental: as §3

[3] = system: LAD (B) lymphocyte adhesion to HUVE monolayers; assay: Endothelial cell adhesion assay, LAD cells on HUVE monolayers; format: cell-based, human; details: Table XI
Experimental: as §1, §2

[4] = system: Ramos (B) lymphocyte adhesion to HUVE monolayers; assay: Endothelial cell adhesion assay, Ramos cells on HUVE monolayers; format: cell-based, human; details: Table XI
Experimental: as §1, §2

fibroblasts = assay: Inhibition of fibroblast adhesion to plasma fibronectin; format: cell-based
Experimental: as §3

integrin α5β1 [5] = biological target: T1, integrin α5β1 (human, UniProt P08648 42-1049; P05556 21-798); assay: adhesion of 51Cr-HT1080 cells to plasma fibronectin-coated plastic with hybridoma supernatant; SP2 control 100%
integrin α5β1 [6] = biological target: T1, integrin α5β1; assay: adhesion of 51Cr-PBL to plasma fibronectin-coated plastic with hybridoma supernatant; SP2 control 100%
integrin α5β1 [7] = biological target: T1, integrin α5β1; assay: adhesion of 51Cr-Jurkat cells to plasma fibronectin-coated plastic with hybridoma supernatant; SP2 control 100%
integrin α5β1 [8] = biological target: T1, integrin α5β1; assay: adhesion of T lymphocytes to 80 kDa-coated plastic with P1D6; IgG control 8580
integrin α5β1 [9] = biological target: T1, integrin α5β1; assay: adhesion of T lymphocytes to CS-1 (rabbit IgG conjugate)-coated plastic with P1D6; IgG control 44339
integrin α5β1 [10] = biological target: T1, integrin α5β1; assay: adhesion of T lymphocytes to CS-2 (rabbit IgG conjugate)-coated plastic with P1D6; IgG control […]
integrin α5β1 [11] = biological target: T1, integrin α5β1; assay: cell-based or functional assay
integrin α5β1 [12] = biological target: T1, integrin α5β1; assay: adhesion of T lymphocytes to 38 kDa-coated plastic with P1D6; IgG control 22680
integrin α5β1 [13] = biological target: T1, integrin α5β1; assay: adhesion of 51Cr-Molt 4 cells to plasma fibronectin-coated plastic with hybridoma supernatant; SP2 control 100%
integrin receptor α4β1 [14] = biological target: T2, integrin receptor α4β1 (human, UniProt P13612 34-1032; P05556 21-798); assay: adhesion of T lymphocytes to 38 kDa-coated plastic with P4C2; IgG control 22680
integrin receptor α4β1 [15] = biological target: T2, integrin receptor α4β1; assay: adhesion of T lymphocytes to CS-1 (rabbit IgG conjugate)-coated plastic with P4C2; IgG control 44339
integrin receptor α4β1 [16] = biological target: T2, integrin receptor α4β1; assay: adhesion of 51Cr-HT1080 cells to plasma fibronectin-coated plastic with hybridoma supernatant; SP2 control 100%
integrin receptor α4β1 [17] = biological target: T2, integrin receptor α4β1; assay: adhesion of 51Cr-PBL to plasma fibronectin-coated plastic with hybridoma supernatant; SP2 control 100%
integrin receptor α4β1 [18] = biological target: T2, integrin receptor α4β1; assay: adhesion of 51Cr-Jurkat cells to plasma fibronectin-coated plastic with hybridoma supernatant; SP2 control 100%
integrin receptor α4β1 [19] = biological target: T2, integrin receptor α4β1; assay: adhesion of T lymphocytes to 80 kDa-coated plastic with P4C2; IgG control 8580
integrin receptor α4β1 [20] = biological target: T2, integrin receptor α4β1; assay: cell-based or functional assay
integrin receptor α4β1 [21] = biological target: T2, integrin receptor α4β1; assay: adhesion of T lymphocytes to CS-2 (rabbit IgG conjugate)-coated plastic with P4C2; IgG control […]
integrin receptor α4β1 [22] = biological target: T2, integrin receptor α4β1; assay: adhesion of 51Cr-Molt 4 cells to plasma fibronectin-coated plastic with hybridoma supernatant; SP2 control 100%
integrin receptor α4β1 [23] = biological target: T2, integrin receptor α4β1; assay: adhesion of Jurkat and Molt 4 cells to coated fragments
integrin receptor α4β1 [24] = biological target: T2, integrin receptor α4β1; assay: T lymphocyte adhesion to coated fragments
integrin receptor α4β1 [25] = biological target: T2, integrin receptor α4β1; assay: adhesion of 51Cr-Jurkat cells to surfaces coated with graded peptide-rsa conjugate; 50% of total input cpm, read from plot
Experimental: Therefore, peptide-conjugates were prepared using rabbit serum albumin (rsa) as a carrier and the conjugates were tested for their ability to support cell adhesion. […] The adhesion experiments presented in Table XIV were conducted as follows:
(No adhesion=no measurable adhesion above negative controls.)

T2 sequence (P13612 34-1032, form in doubt, chain 1 of 2): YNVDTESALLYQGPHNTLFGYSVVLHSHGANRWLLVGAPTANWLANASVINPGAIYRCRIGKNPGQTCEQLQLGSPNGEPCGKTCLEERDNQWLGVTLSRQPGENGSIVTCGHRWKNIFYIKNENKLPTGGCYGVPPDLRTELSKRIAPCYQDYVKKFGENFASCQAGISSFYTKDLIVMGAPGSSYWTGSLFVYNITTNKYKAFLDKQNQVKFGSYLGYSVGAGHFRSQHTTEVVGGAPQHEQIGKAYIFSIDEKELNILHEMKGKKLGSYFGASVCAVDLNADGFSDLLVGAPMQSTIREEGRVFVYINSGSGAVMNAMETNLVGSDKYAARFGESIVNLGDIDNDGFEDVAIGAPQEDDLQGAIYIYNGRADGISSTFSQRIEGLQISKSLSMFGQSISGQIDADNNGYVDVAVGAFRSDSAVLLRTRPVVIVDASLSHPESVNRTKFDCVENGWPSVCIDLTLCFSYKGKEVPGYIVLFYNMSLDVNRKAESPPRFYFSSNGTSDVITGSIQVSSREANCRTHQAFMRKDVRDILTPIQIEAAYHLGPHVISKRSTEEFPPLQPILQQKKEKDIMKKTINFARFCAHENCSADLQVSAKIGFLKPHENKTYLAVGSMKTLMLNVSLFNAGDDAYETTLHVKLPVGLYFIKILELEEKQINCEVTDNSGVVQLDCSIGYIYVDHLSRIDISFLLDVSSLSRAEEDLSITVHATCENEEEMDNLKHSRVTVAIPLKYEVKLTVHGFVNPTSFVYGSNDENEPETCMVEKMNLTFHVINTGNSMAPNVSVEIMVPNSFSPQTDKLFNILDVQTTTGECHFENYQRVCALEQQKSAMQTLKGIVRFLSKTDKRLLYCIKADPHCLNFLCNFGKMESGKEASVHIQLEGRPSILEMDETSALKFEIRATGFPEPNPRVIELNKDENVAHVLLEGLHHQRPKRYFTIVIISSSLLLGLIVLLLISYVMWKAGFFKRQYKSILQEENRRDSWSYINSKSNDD
T2 sequence (P05556 21-798, form in doubt, chain 2 of 2): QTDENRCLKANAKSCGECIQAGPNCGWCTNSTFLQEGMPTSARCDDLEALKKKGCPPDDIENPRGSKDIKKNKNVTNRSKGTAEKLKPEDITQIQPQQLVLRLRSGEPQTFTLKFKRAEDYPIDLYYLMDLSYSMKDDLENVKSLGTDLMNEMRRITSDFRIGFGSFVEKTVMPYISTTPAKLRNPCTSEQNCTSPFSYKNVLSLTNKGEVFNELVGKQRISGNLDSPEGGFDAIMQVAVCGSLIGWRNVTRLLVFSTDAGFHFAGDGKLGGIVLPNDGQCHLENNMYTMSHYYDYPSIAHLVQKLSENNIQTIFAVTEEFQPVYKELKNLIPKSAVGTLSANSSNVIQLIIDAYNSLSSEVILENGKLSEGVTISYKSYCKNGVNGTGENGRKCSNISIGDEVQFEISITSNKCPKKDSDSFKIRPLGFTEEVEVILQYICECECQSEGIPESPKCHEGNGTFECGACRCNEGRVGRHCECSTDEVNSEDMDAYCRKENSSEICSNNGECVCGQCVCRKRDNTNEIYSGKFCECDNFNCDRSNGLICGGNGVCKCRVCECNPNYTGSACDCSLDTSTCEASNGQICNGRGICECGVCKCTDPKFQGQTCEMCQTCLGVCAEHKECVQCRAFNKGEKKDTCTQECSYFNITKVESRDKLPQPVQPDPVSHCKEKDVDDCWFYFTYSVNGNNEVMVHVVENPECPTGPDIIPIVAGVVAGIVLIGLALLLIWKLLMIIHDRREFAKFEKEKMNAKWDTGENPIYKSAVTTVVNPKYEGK
T1 sequence (P08648 42-1049, chain 1 of 2): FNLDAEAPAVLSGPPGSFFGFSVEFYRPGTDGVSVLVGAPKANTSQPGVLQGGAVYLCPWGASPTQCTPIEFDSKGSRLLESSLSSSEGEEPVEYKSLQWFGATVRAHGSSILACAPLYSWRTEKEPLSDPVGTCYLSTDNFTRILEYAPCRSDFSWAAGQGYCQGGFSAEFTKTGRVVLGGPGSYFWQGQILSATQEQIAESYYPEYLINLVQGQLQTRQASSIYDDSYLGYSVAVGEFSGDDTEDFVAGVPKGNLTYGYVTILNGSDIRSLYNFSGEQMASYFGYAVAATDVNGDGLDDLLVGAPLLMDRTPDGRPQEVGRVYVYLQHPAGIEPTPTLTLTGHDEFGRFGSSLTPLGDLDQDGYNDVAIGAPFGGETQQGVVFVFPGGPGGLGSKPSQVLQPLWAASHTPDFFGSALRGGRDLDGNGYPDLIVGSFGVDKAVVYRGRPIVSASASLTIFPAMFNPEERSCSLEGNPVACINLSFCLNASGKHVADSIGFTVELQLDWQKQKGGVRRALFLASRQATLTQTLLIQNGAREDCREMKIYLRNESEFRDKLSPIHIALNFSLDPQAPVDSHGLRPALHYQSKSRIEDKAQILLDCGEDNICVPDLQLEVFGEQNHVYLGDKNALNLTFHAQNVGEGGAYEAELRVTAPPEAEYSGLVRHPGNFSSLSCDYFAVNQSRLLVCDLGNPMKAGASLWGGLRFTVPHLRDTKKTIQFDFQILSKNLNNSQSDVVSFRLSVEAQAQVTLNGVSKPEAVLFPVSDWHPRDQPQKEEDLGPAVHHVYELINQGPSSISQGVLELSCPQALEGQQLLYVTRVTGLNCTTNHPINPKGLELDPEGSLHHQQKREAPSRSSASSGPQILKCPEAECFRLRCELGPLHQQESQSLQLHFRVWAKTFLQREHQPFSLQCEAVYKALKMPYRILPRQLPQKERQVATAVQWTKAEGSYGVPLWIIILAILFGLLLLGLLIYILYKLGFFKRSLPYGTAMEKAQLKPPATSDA
T1 sequence (P05556 21-798, chain 2 of 2): as the sequence (P05556 21-798, form in doubt, chain 2 of 2) above

Molecule: Arg-Gly-Asp-Ser (RGDS) [reference compound]
- Adhesion (cpm) +IL-1β ([1]; IL-1β activated HUVE, no peptide 314848): 357616 cpm
- Adhesion (cpm) Basal ([1]; basal HUVE, no peptide 161092): 298688 cpm
- Inhibition of adhesion to plasma fibronectin ([2]; Molt 4 or Jurkat cells): 50–70%
- Inhibition of adhesion to plasma fibronectin (K562-1 cells): 100%
- Inhibition of Jurkat cell adhesion to intact fibronectin (Jurkat; 1 mg/ml): 50%
- Inhibition of Jurkat cell adhesion to the 80 kDa fragment (Jurkat; 1 mg/ml): 100%
- Effect on Jurkat cell adhesion to the 38 kDa fragment (Jurkat; up to 1 mg/ml): unaffected
- Adhesion (cpm) +IL-1β ([3]; IL-1β activated HUVE, no peptide 71408): 102076 cpm
- Adhesion (cpm) Basal ([3]; basal HUVE, no peptide 44860): 70652 cpm
- Adhesion (cpm) +IL-1β ([4]; IL-1β activated HUVE, no peptide 12936): 28104 cpm
- Adhesion (cpm) Basal ([4]; basal HUVE, no peptide 2724): 16920 cpm
- Inhibition of adhesion to plasma fibronectin (fibroblasts): 80–90%

Molecule: monoclonal antibody P1D6
- Fibronectin Adhesion (% Control) (integrin α5β1 [5]): 5 % Control
- Fibronectin Adhesion (% Control) (integrin α5β1 [6]): 43 % Control
- Fibronectin Adhesion (% Control) (integrin α5β1 [7]): 22 % Control
- T lymphocyte adhesion (unit not given) (integrin α5β1 [8]): 202
- T lymphocyte adhesion (unit not given) (integrin α5β1 [9]): 42900
- T lymphocyte adhesion (unit not given) (integrin α5β1 [10]): 435
- Adhesion (cpm), Jurkat (T) on HUVE monolayers, +IL-1β; SP2 control 372159 (integrin α5β1 [11]): 418000 cpm
- Adhesion (cpm), Jurkat (T) on HUVE monolayers, Basal; SP2 control 83924 (integrin α5β1 [11]): 84000 cpm
- Adhesion (cpm), LAD (B) on HUVE monolayers, +IL-1β; SP2 control 104672 (integrin α5β1 [11]): 114000 cpm
- Adhesion (cpm), LAD (B) on HUVE monolayers, Basal; SP2 control 19542 (integrin α5β1 [11]): 15700 cpm
- Adhesion (cpm), Ramos (B) on HUVE monolayers, +IL-1β; SP2 control 12157 (integrin α5β1 [11]): 11200 cpm
- Adhesion (cpm), Ramos (B) on HUVE monolayers, Basal; SP2 control 972 (integrin α5β1 [11]): 808 cpm
- T lymphocyte adhesion (unit not given) (integrin α5β1 [12]): 24900
- Fibronectin Adhesion (% Control) (integrin α5β1 [13]): 18 % Control

Molecule: monoclonal antibody P4C2
- T lymphocyte adhesion (unit not given) (integrin receptor α4β1 [14]): 114
- T lymphocyte adhesion (unit not given) (integrin receptor α4β1 [15]): 841
- Fibronectin Adhesion (% Control) (integrin receptor α4β1 [16]): 93 % Control
- Fibronectin Adhesion (% Control) (integrin receptor α4β1 [17]): 10 % Control
- Fibronectin Adhesion (% Control) (integrin receptor α4β1 [18]): 12 % Control
- T lymphocyte adhesion (unit not given) (integrin receptor α4β1 [19]): 7150
- Adhesion (cpm), Jurkat (T) on HUVE monolayers, +IL-1β; SP2 control 372159 (integrin receptor α4β1 [20]): 137000 cpm
- Adhesion (cpm), Jurkat (T) on HUVE monolayers, Basal; SP2 control 83924 (integrin receptor α4β1 [20]): 23100 cpm
- Adhesion (cpm), LAD (B) on HUVE monolayers, +IL-1β; SP2 control 104672 (integrin receptor α4β1 [20]): 38100 cpm
- Adhesion (cpm), LAD (B) on HUVE monolayers, Basal; SP2 control 19542 (integrin receptor α4β1 [20]): 6460 cpm
- Adhesion (cpm), Ramos (B) on HUVE monolayers, +IL-1β; SP2 control 12157 (integrin receptor α4β1 [20]): 3690 cpm
- Adhesion (cpm), Ramos (B) on HUVE monolayers, Basal; SP2 control 972 (integrin receptor α4β1 [20]): 456 cpm
- T lymphocyte adhesion (unit not given) (integrin receptor α4β1 [21]): 535
- Fibronectin Adhesion (% Control) (integrin receptor α4β1 [22]): 8 % Control

B1: 58 kDa tryptic fragment of plasma fibronectin (ligand, human, UniProt P02751-10 1589-2125, looked up)
chain: TAGPDQTEMTIEGLQPTVEYVVSVYAQNPSGESQPLVQTAVTTIPAPTDLKFTQVTPTSLSAQWTPPNVQLTGYRVRVTPKEKTGPMKEINLAPDSSSVVVSGLMVATKYEVSVYALKDTLTSRPAQGVVTTLENVSPPRRARVTDATETTITISWRTKTETITGFQVDAVPANGQTPIQRTIKPDVRSYTITGLQPGTDYKIYLYTLNDNARSSPVVIDASTAIDAPSNLRFLATTPNSLLVSWQPPRARITGYIIKYEKPGSPPREVVPRPRPGVTEATITGLEPGTEYTIYVIALKNNQKSEPLIGRKKTGQEALSQTTISWAPFQDTSEYIISCHPVGTDEEPLQFRVPGTSTSATLTGLTRGATYNVIVEALKDQQRHKVREEVVTVGNSVNEGLNQPTDDSCFDPYTVSHYAVGDEWERMSESGFKLLCQCLGFGSGHFRCDSSRWCHDNGVNYKIGEKWDRQGENGQMMSCTCLGNGKGEFKCDPHEATCYDDGKTYHVGEQWQKEYLGAICSCTCFGGQRGWRCDNCRR
notes: domain: Hep II and Fib II (58 kDa tryptic fragment)
- maximum cell attachment relative to the 38 kDa fragment (integrin receptor α4β1 [23]): 30%

B2: 38 kDa tryptic fragment of plasma fibronectin (ligand, human, UniProt P02751-8 1589-1968, looked up)
chain: TAGPDQTEMTIEGLQPTVEYVVSVYAQNPSGESQPLVQTAVTTIPAPTDLKFTQVTPTSLSAQWTPPNVQLTGYRVRVTPKEKTGPMKEINLAPDSSSVVVSGLMVATKYEVSVYALKDTLTSRPAQGVVTTLENVSPPRRARVTDATETTITISWRTKTETITGFQVDAVPANGQTPIQRTIKPDVRSYTITGLQPGTDYKIYLYTLNDNARSSPVVIDASTAIDAPSNLRFLATTPNSLLVSWQPPRARITGYIIKYEKPGSPPREVVPRPRPGVTEATITGLEPGTEYTIYVIALKNNQKSEPLIGRKKTDELPQLVTLPHPNLHGPEILDVPSTVQKTPFVTHPGYDTGNGIQLPGTSGQQPSVGQQMIFEEHGFR
notes: domain: Hep II and first 67 residues of IIICS (38 kDa tryptic fragment); also called CTCBD fragment
- Efficiency in mediating T lymphocyte adhesion, on a molar basis ([2]; compared with the 58 kDa fragment): three times more efficient than the 58 kDa fragment
- efficiency in mediating T lymphocyte adhesion relative to the 58 kDa fragment (molar basis) (integrin receptor α4β1 [24]): 3 times

B3: rsa-CS-1 (peptide)
peptide: DELPQLVTLPHPNLHGPEILDVPST
modifications: also: conjugated to SMCC-derivatized rabbit serum albumin
notes: also called CS-1-rsa; CS-1 (RSA conjugate)
- Molar Concentration required for 50% adhesion of Jurkat cells (integrin receptor α4β1 [25]): 115 nM

Molecule: LHGPEILDVPST (also: conjugated to SMCC-derivatized rabbit serum albumin, also called B12-rsa conjugate) [rsa-B12]
- Molar Concentration required for 50% adhesion of Jurkat cells (integrin receptor α4β1 [25]): 492 nM

Molecule: EILDV (also: conjugated to SMCC-derivatized rabbit serum albumin, also called EILDV-RSA) [rsa-EILDV]
- Molar Concentration required for 50% adhesion of Jurkat cells (integrin receptor α4β1 [25]): 1130 nM
